Molecular target: T1, GSDMD (Mus musculus, UniProt Q9D8T2)
T1 chain: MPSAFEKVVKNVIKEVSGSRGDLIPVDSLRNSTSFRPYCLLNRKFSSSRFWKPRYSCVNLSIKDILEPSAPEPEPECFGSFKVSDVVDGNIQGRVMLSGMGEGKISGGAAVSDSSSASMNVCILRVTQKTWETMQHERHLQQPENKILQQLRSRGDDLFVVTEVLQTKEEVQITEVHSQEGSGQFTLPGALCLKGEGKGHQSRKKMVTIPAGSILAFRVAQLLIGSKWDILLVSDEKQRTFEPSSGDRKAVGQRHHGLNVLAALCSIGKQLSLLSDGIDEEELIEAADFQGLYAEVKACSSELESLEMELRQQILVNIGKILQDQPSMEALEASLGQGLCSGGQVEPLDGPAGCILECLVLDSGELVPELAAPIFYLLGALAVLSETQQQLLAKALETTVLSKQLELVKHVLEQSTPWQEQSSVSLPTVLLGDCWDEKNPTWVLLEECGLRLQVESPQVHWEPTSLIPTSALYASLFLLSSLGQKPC
Assay: SPR

B1: CIRP (protein)
chain: MASDEGKLFVGGLSFDTNEQALEQVFSKYGQISEVVVVKDRETQRSRGFGFVTFENIDDAKDAMMAMNGKSVDGRQIRVDQAGKSSDNRSRGYRGGSAGGRGFFRGGRSRGRGFSRGGGDRGYGGGRFESRSGGYGGSRDYYASRSQGGSYGYRSSGGSYRDSYDSYATHNE
Kd: 487 nM

Reference: PMC9050887 (2023)
